Experiment [1] deals with T1, Protein Interacting with C Kinase-1 (PICK1), purified recombinant (UniProt Q9EP80 1-416).
T1 construct: also called purified PICK1
As to the kind of experiment: fluorescence polarization competition, tracer 5-FAM-TAT-C5.

Experiment [2] addresses T1, Protein Interacting with C Kinase-1 …. Put plainly: fluorescence polarization competition, tracer 5FAM-TAT-(C5). (In general: Polarisation of emitted light reports the rotation of a fluorescent probe.)
The target in experiment [3] is T2, GFP-PICK1 A87L (UniProt Q9EP80 1-416).
T2 construct: also called PDZ deficient mutant GFP-PICK1 A87L; not shown: GFP tag
Put plainly: colocalization in heterologous cells.

The target in experiment [4] is T2, GFP-PICK1 A87L. Put plainly: pull-down from HEK293 cells.
Experiment [5] has as its target T3, PICK1 (endogenous, mouse spinal cord) (mouse, UniProt Q62083 1-416).
T3 construct: also called PICK1 protein
As to the kind of experiment: pull-down from mouse spinal cord after intrathecal administration.

Where no end group is shown, it is not given here. The star is where a group is joined. NPEG4 = 4-unit NPEG linker joining two HWLKV peptides through their N-termini, carries the CPP on its nitrogen; Biotin = O=C1N[C@H]2[C@H](CS[C@H]2CCCCC(=O)*)N1

T1 sequence (Q9EP80 whole entry): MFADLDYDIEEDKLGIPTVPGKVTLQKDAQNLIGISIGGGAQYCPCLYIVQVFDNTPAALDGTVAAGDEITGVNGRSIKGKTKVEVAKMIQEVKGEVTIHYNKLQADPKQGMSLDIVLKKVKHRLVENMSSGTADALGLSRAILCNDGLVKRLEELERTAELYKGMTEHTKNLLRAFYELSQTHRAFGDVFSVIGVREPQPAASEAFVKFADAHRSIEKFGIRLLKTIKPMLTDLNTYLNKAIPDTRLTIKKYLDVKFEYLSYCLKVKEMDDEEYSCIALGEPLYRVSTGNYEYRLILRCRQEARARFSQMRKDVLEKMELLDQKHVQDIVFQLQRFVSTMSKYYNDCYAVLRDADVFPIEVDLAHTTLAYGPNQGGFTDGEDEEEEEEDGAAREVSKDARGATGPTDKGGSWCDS
T2 sequence (Q9EP80 whole entry A87L): as the sequence (Q9EP80 whole entry) above, with A87L counted along it
T3 sequence (Q62083 whole entry): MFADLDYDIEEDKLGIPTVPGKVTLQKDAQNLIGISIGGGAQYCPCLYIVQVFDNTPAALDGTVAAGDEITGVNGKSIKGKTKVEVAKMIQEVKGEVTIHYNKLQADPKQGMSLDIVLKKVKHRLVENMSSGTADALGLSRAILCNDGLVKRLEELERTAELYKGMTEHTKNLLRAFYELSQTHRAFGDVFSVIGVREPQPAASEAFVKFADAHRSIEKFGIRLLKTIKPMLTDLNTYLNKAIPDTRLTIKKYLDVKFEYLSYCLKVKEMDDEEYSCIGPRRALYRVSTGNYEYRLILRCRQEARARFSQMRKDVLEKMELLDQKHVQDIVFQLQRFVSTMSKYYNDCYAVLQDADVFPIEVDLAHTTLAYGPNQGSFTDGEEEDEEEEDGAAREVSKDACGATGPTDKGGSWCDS

B1: PNT-P4-(C5)2 (peptide)
peptide 1: RQIKIWFQNRRMKWKK
peptide 2: HWLKV
modifications: not fully specified
notes: Branched compound as TAT-P4-(C5)2, with Penetratin as CPP; also called Pent-P4-(C5)2; PNT-peptide
Regarding B1, the “Fold affinity change (against TAT-P4-(C5)2)” value (“Fold affinity change” for short) in experiment [1] stood at 1.7 fold.

B2: TAT11-PEG4-(DATC5)2 (peptide)
peptide 1: YGRKKRRQRRR
peptide 2: NPEG4-HWLKV
modifications: not fully specified (C-terminus)
notes: Branched compound: two HWLKV peptides joined through their N-termini by a 4-unit NPEG linker that carries the CPP; also called TAT-P4-(C5)2
B2: in experiment [2], the “fold shift in affinity” value came to 301 fold. In experiment [1], the “Fold affinity change” value was 1 fold and the inhibitory constant (Ki) (usually a dissociation constant, usually derived from enzyme kinetics or from competition with a known ligand) was 4 nM.

B3: MAP-P4-(C5)2 (peptide)
peptide 1: KLALKLALKALKAALKLA
peptide 2: HWLKV
modifications: not fully specified
notes: also called MAP-NPEG4-(HWLKV)2; MAP-peptide
On to B3, for which, in experiment [1], the “Fold affinity change” value worked out at 0.8 fold and the inhibitory constant (Ki) was determined as 5.1 nM.

B4: TAMRA-YGRKKRRQRRR-PEG4-(HWLKV)2 (peptide)
peptide 1: YGRKKRRQRRR
peptide 2: HWLKV
modifications: not fully specified; N-terminus linked to the NPEG4 linker that joins the two copies; TAMRA on the N-terminus of the TAT sequence; conjugated to the NPEG4 linker
notes: also called TMR-TAT-P4-(C5)2; TMR-TAT11-P4-(C5)2
For B4, the binding result in the experiment with GFP-PICK1 A87L [3] was “no binding”.

B5: N-terminally biotinylated TAT-P4-(C5)2 (peptide)
peptide 1: Biotin-YGRKKRRQRRR
peptide 2: HWLKV
modifications: not fully specified
notes: also called Biotin-TAT-P4-(C5)2
As to B5, the figures for the binding result (in the experiment with GFP-PICK1 A87L [4]; in experiment [5]) were “no binding” and “binds”, respectively.

Values taken from US20210347821A1 (published 2021).
